Assay results as given in paper PMC2185068.

Target: Myc-nectin-1-CP (aa 379–518) (human)
Test: pull-down

B1: GST-l-afadin-PDZ (aa 1007–1125) (domain or fragment)
chain: PLRKEPEVITVTLKKQNGMGLSIVAAKGAGQDKLGIYVKSVVKGGAADVDGRLAAGDQLLSVDGRSLVGLSQERAAELMTRTSSVVTLEVAKQGAIYHGLATLLNQPSPMMQRISDRRG
Work on B1 yielded a stoichiometry N of 1.
